Tests used:
[1] = substrate: N[C@@H](Cc1ccccc1)C(=O)O; assay: yeast microsomes, LC-MS/MS of (E/Z)-phenylacetaldoxime formed; type: biochemical, Zea mays; settings: 1 mM NADPH, 75 mM sodium phosphate pH 7.0, 25 °C, 30 min, microsomes with Arabidopsis CPR1
[2] = substrate: N[C@@H](Cc1c[nH]c2ccccc12)C(=O)O; assay: yeast microsomes, LC-MS/MS of (E/Z)-indole-3-acetaldoxime formed; type: biochemical, Zea mays; settings: 1 mM NADPH, 75 mM sodium phosphate pH 7.0, 25 °C, 30 min, microsomes with Arabidopsis CPR1

B1: CYP79A61 (Zea mays subsp. mays) (protein)
chain: MVSSPQANKFPLRKQISSPSSSCMAPHVLLVLVILLYLVRTLRPWRSRRNSTCCTPSLPPGPVPWPVVGNLPEMMLSDKPAFHWIHHIMKEAGTDIACIKLGGVHVIPISCPKIALEVLSNQDANFASRPLTFASKTFSTGYRDAAMSHCGDHWKKMRRVLASEIVCPSRHRWLHDKRADEADNLTRYVYNLATKAGSSGAVDVRHIARHYCGNVVRRLMFNTRYFGKPQPDSGPGPLEVQHVDAVFTSLGLLYSFCVSDYLPWLLGLDLDGHEKMVKEANERVTRLHDAVIDERWRLWKSGERRELEDFLDVLIMLKDAEAGRPVLSIEEVKALLMDITFASMDNPSNAVEWALAEMVNNPTMLKKAVDEIDSVVGQERLVQEHDIPRLNYTKACIREAFRLHPVAPFNVPHVAVADATVAGYRIPKGSHVILSRTGLGRNPDVWDDPLRFDPERHIPLSPEMEVSLVERDLRFISFSTGRRGCIAAALGTDMTIMLFGRLLQGFSWSKMTGVAAIDLSESRHNTFMARPLVLQAKPRLPAHLYPGILLCK
notes: complete open reading frame, untagged as far as told, pESC-Leu2d, Saccharomyces cerevisiae WAT11 microsomes with Arabidopsis CPR1
In the case of B1, the Km [1] is reported as 117.2 ± 6.0 µM and the Km [2] is reported as 150.2 ± 9.2 µM.
